Results published in publication PMC10920922.

What was measured:
[1] = molecular target: TaSG-D1-GFP (wheat (Triticum aestivum))
[2] = molecular target: TaSG-D1^E286K-GFP (Indian dwarf wheat (Triticum sphaerococcum))

TaPIF4-Myc (natural protein)
share of TaPIF4 associated with and protected by the kinase after 3 h heat stress: TaPIF4 protein still detectable on co-transformation in N. benthamiana leaves (23%) less that of the control (12%) [1]: 11% | share of TaPIF4 associated with and protected by the kinase after 3 h heat stress: TaPIF4 protein still detectable on co-transformation in N. benthamiana leaves (88%) less that of the control (12%) [2]: 76%
